# Measurements as given in patent US6673896.
# Molecular target: T4 glycoprotein (human T cell surface protein T4) (human) (UniProt P01730)
# Test: cell-based or functional assay
substance,measurement,value
OKT4A monoclonal antibody,"VSV PSEUDOTYPE TITER, VSV(AIDS) +αT4A, CEM(T4+) cells",200 PFU/ml
same,"VSV PSEUDOTYPE TITER, VSV(AIDS) +αT4A, HSB2-T4+ cells",300 PFU/ml
same,"VSV PSEUDOTYPE TITER, VSV(AIDS) +αT4A, HeLa-T4+ cells",200 PFU/ml
same,"VSV PSEUDOTYPE TITER, VSV(AIDS) +αT4A, Raji-T4+ cells",150 PFU/ml
